Measured values published in PMC9558310 (ACS Chemical Biology, 2019).

B1: Strep-tag recombinant human PLPBP (natural protein)
chain: not shown
modifications: pyridoxal 5'-phosphate bound at Lys47 (internal aldimine)
B2: human PLPBP R41Q mutant (natural protein)
chain: not shown
modifications: fully saturated with PLP after purification
B3: tag-free recombinant human pyridoxal 5'-phosphate-binding protein (PLPBP) (natural protein)
chain: not shown
modifications: pyridoxal 5'-phosphate bound at Lys47 (internal aldimine)

Molecular target: the molecule itself
Experiment: SEC

| Protein | stoichiometry N | binding result |
| --- | --- | --- |
| B1 | 2 |  |
| B2 |  | binds |
| B3 | 2 |  |
